Source: patent US20100166722A1

Experiments:
[1] = target: cognate NY-ESO peptide-MHC presented on peptide-pulsed APCs; experiment: cell-based or functional assay
[2] = target: biotinylated cognate NY-ESO peptide-HLA-A*0201 complex; experiment: SPR (Biacore 3000), soluble TCR over immobilised biotinylated pMHC

IFN-γ release ELISA, CD4+ T cells; peptide pulsing level needed for a significant response [1] [nM] | Half-live (T½) [2] [s] | Substance
> 10 | – | full-length wild-type 1G4 NY-ESO TCR expressed on transfected T cells
– | 2.2 | soluble disulfide-linked wild-type 1G4 NY-ESO TCR
